From PMC7083832, “Structural analysis of TIFA: Insight into TIFA-dependent signal transduction in innate immunity” (Scientific Reports, 2020)
Substitutions are numbered along the chain they refer to. Numbers in names are those of the source. Where “and” joins values, the source holds several entries; their conditions need not be identical. Identical values can stand only once.

B1: full-length mouse TIFA (TRAF-interacting protein with a forkhead-associated (FHA) domain) (natural protein, UniProt Q793I8 1-184, looked up)
chain: MSTFEDADTEETVTCLQMTIYHPGQQSGIFKSIRFCSKEKFPSIEVVKFGRNSNMCQYTFQDKQVSRIQFVLQPFKQFNSSVLSFEIKNMSKKTSLMVDNQELGYLNKMDLPYKCMLRFGEYQFLLQKEDGESVESFETQFIMSSRPLLQENNWPTQNPIPEDGMYSSYFTHRSSPSEMDENEL
notes: TIFA, mouse, full length, 184 amino acids, GenBank BAB86903.1; A SeMet form (E. coli B834(DE3)) was used only for phasing; also called wildtype TIFA; native TIFA; not shown: His tag, C-terminal, kept
B2: mouse TIFA T9D/C36S mutant (natural protein, UniProt Q793I8 1-184, looked up)
chain: B1 chain with T9D, C36S
notes: TIFA, mouse, full length, 184 amino acids, GenBank BAB86903.1, with T9D (phosphomimetic) and C36S; Dimers assemble into a hexamer in the crystal; source: E. coli BL21(DE3), pET-30b(+), purified by nearly the same procedure as for native TIFA
B3: mouse TIFA E39R/E138R mutant (natural protein, UniProt Q793I8 1-184, looked up)
chain: B1 chain with E39R, E138R
notes: TIFA, mouse, full length, 184 amino acids, GenBank BAB86903.1, with E39R and E138R; source: E. coli BL21(DE3), pET-30b(+), purified by nearly the same procedure as for native TIFA
B4: mouse TIFA T9E/C36S mutant (natural protein, UniProt Q793I8 1-184, looked up)
chain: B1 chain with T9E, C36S
notes: TIFA, mouse, full length, 184 amino acids, GenBank BAB86903.1, with T9E (phosphomimetic) and C36S; source: E. coli BL21(DE3), pET-30b(+), purified by nearly the same procedure as for native TIFA
B5: mouse TIFA E39R/E45R/E138R mutant (natural protein, UniProt Q793I8 1-184, looked up)
chain: B1 chain with E39R, E45R, E138R
notes: TIFA, mouse, full length, 184 amino acids, GenBank BAB86903.1, with E39R, E45R and E138R; source: E. coli BL21(DE3), pET-30b(+), purified by nearly the same procedure as for native TIFA
B6: mouse TRAF6-C containing a part of coiled-coil domain (amino acid residues from 326 to 516) (domain or fragment, UniProt P70196 326-516, looked up)
chain: AKMETQSMYVGELKRTIRTLEDKVAEMEAQQCNGIYIWKIGNFGMHLKSQEEERPVVIHSPGFYTGRPGYKLCMRLHLQLPTAQRCANYISLFVHTMQGEYDSHLPWPFQGTIRLTILDQSEALIRQNHEEVMDAKPELLAFQRPTIPRNPKGFGYVTFMHLEALRQGTFIKDDTLLVRCEVSTRFDMGGL
notes: TRAF6, mouse, residues 326-516: part of the coiled-coil domain and the C-terminal TRAF (TRAF-C) domain; also called TRAF-C domain of TRAF6; not shown: His tag, C-terminal, kept

Assays:
[1] = biological target: B6; test: SEC; TIFAs and TRAF6-C mixed at a molar ratio of 1:1 (monomer:monomer); Superdex 200; 20 mM Tris pH 8.0, 500 mM NaCl, 2 mM EDTA, 1 mM β-mercaptoethanol; conditions: both partners purified
[2] = biological target: the molecule itself; test: crystal structure; hanging-drop vapour diffusion, reservoir 0.1 M MES pH 6.4, 5% (v/v) MPD (native TIFA; T9E/C36S under a similar condition); data at 100 K
[3] = biological target: the molecule itself; test: crystal structure; reservoir 0.1 M sodium citrate pH 5.3, 40% (v/v) PEG400 (T9D/C36S); data at 100 K
[4] = biological target: the molecule itself; test: SEC; each protein alone; Superdex 200; 20 mM Tris pH 8.0, 500 mM NaCl, 2 mM EDTA, 1 mM β-mercaptoethanol

binding result [1]	Binder	stoichiometry N [2]	stoichiometry N [3]	binding result [4]	stoichiometry N [4]
binds	B1	2			
binds	B2		2 and 6		
binds	B3			binds	
binds	B4	2			
binds	B5			binds	
	B6				3
